Molecular target: T1, PAN-2 (MJ1494), HbYX ATPase from Methanocaldococcus jannaschii (Methanocaldococcus jannaschii, UniProt Q58889 1-371)
T1 construct: PAN-2 (MJ1494), Methanocaldococcus jannaschii, UniProt Q58889; The hexameric state is only an AlphaFold Multimer prediction, not a measurement; also called putative 26S proteasome regulatory subunit; source: E. coli BL21 star DE3 (pET-28a(+), IPTG), held on Ni-NTA agarose from clarified lysate and washed; not shown: His6, N-terminal, kept
T1 sequence (looked up): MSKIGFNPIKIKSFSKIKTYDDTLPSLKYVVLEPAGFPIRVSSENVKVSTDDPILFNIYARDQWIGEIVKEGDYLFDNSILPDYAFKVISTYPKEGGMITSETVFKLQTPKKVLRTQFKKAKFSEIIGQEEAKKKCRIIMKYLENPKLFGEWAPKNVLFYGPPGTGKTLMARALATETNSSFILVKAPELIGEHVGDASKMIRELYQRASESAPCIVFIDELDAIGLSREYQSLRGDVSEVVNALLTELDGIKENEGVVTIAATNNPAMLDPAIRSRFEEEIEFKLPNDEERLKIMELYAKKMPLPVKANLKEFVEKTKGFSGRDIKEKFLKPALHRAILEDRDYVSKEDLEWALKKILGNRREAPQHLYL
Experiment: pull-down; 6His-PAN-2 held on Ni-NTA agarose, washed with 50 mM Tris, 100 mM NaCl, 2 mM ATP, 10 mM MgCl2; tagless T20S incubated 20 min at room temperature; washed; eluted with 150 mM imidazole; T20S in the eluate quantified by suc-LLVY-amc hydrolysis; control: Ni-NTA columns with T20S alone
Settings: both partners purified

B1: T20S proteasome (20S from Thermoplasma acidophilum) (complex)
chain 1: MQQGQMAYDRAITVFSPDGRLFQVEYAREAVKKGSTALGMKFANGVLLISDKKVRSRLIEQNSIEKIQLIDDYVAAVTSGLVADARVLVDFARISAQQEKVTYGSLVNIENLVKRVADQMQQYTQYGGVRPYGVSLIFAGIDQIGPRLFDCDPAGTINEYKATAIGSGKDAVVSFLEREYKENLPEKEAVTLGIKALKSSLEEGEELKAPEIASITVGNKYRIYDQEEVKKFL
chain 2: TTTVGITLKDAVIMATERRVTMENFIMHKNGKKLFQIDTYTGMTIAGLVGDAQVLVRYMKAELELYRLQRRVNMPIEAVATLLSNMLNQVKYMPYMVQLLVGGIDTAPHVFSIDAAGGSVEDIYASTGSGSPFVYGVLESQYSEKMTVDEGVDLVIRAISAAKQRDSASGGMIDVAVITRKDGYVQLPTDQIESRIRKLGLIL
notes: proteasome subunit alpha, Thermoplasma acidophilum; proteasome subunit beta, Thermoplasma acidophilum; The C-terminal 6His tag on the beta subunits is preceded by a TEV site, so residues of that site probably stay at the beta C-terminus after the cut (surmise); also called archaeal proteasome T20S; archaeal 20S proteasome; source: recombinant, expressed from pET-28a(+), purified (Ni-NTA, TEV cut, …)
fold T20S pulled down against control Ni-NTA columns: 7 fold

— publication PMC11475706, “ProEnd: a comprehensive database for identifying HbYX motif-containing proteins across the tree of life” (BMC Genomics, 2024)
